Measurements from patent US20250084174A1.
Positions count from the first letter of the chain named.

B1: AB243LO0326 (antibody, V domains shown)
VH: QVQLVQSGAEVKKPGASVKVSCKASGYTFTSYWMHWVRQAPGQGLEWIGVIYPGNSDTRYNQKFKGRVTITRDTSASTAYMELSSLRSEDTAVYYCTRDYYSNYVYYYAMDYWGQGTTVTVSS
VL: DIVMTQTPLSLPVTPGEPASISCRSSQSLVHPNRNTYLHWYLQKPGQSPQLLIYKVSNRFSGVPDRFSGSGSGTDFTLKISRVEAEDVGVYYCSQSTHVPWTFGQGTKLEIK
modifications: here or on the partner: afucosylated form; in the LigandTracer assay DyLight 650 Maleimide on an engineered cysteine residue in the CH2 region
B2: humanised AB1020243 afuc (AB1020243-fgl) (antibody, V domains shown)
VH: B1 VH
VL: B1 VL with P32S, R34G
modifications: afucosylated form; in the LigandTracer assay DyLight 650 Maleimide on an engineered cysteine residue in the CH2 region
B3: AB243LO0331 (antibody, IgG1, V domains shown)
VH: B1 VH
VL: B1 VL with P32S, R34T
modifications: here or on the partner: afucosylated form

Legend:
[1] = target: human CCR9 (isoform not given) (human), P51686
[2] = target: CCR9 (species and isoform not stated) (UniProt P51686); test: cell-based or functional assay
[3] = target: human CCR9 (isoform not given) (human), P51686; test: cell-based or functional assay
[4] = target: CCR9 (species and isoform not stated) (UniProt P51686); test: LigandTracer on CCR9-expressing CHO K1 cells, DyLight 650 labelled IgG, bivalent (1:2) fit, ~22 °C
[5] = target: CCR9 (species and isoform not stated) (UniProt P51686)

Chain of human CCR9 (isoform not given) (human), P51686 (P51686 whole entry, canonical isoform): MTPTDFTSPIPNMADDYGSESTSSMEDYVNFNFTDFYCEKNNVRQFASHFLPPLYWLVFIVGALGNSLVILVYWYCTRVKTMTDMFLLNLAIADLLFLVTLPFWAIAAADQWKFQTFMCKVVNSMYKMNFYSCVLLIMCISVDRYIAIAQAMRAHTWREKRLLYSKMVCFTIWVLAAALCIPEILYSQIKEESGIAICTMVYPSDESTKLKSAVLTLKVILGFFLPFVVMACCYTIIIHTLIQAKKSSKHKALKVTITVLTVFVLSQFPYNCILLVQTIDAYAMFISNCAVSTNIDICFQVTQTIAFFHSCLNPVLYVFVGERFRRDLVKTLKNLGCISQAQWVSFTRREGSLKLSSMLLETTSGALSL

Row | Binder | IC50 (read off the curve), HTRF IP-One, MOLT 4 cells, 50 nM CCL25 [1] [nM] | prevention of CCL25 induced CCR9 internalisation (FACS) [2] [nM] | EC50, killing of PBMC [3] [nM] | EC50, killing of human CD4+CCR9+ PBMC [3] [nM] | koff [4] [s⁻¹] | EC50, luminescence signal (CPS) against Log M; potency curve as in the NK cell activation reporter assay; the target cell line is not printed on the sheet [5] [M] | Potency, NK cell activation (NK-92 CD16a NFAT luciferase reporter) [3] [nM]
1 | B1 | 0.6 | 2 | 0.004 | 0.004 to 0.005 | – | – | –
2 | B2 | – | – | – | – | 4.3e-05 | 7.3e-09 | 0.8
3 | B3 | 0.6 | – | – | – | – | – | –
